From the RNAGym collection of RNA variant scans (doi:10.1073/pnas.2313332121) come the findings set out here.

The labels stand for the following.
B1: TPR t1 (parent)
chain: GACCAAUCUGCCCUCAGAGCUCGAGAACAUCUUCGGAUGCAGAGGAGGCAGGCUUCGGUGGCGCGAUAGCGCCAACGUCCUCAACCUCCAAUGCAUCCCACCACAUGAUGAUGCCUGAAGAGCCUUGGUUUUUUG

In this series the parent is B1. In words: polymerase ribozyme fitness, log enrichment relative to wild type (log ratio); higher = more active; in vitro selection for triplet polymerase activity. In a few lines:
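To select mutant libraries of each subunit of a heterodimeric triplet polymerase ribozyme, built by PCR and transcribed, each was annealed with a biotinylated primer, partner subunit and triplets, then incubated frozen at −7 °C. Extended constructs were gel-excised, captured on streptavidin beads and amplified by RT-PCR, in one round carried out in triplicate. Illumina sequencing of input and output libraries kept genotypes with ≥10 input reads and ≥1 read per output. Fitness is the base-2 logarithm of genotype enrichment relative to wild-type enrichment, from inverse-variance-weighted replicate averages.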
For C11G G42U A84U, the “polymerase ribozyme fitness (log ratio)” value was -1.53. Turning to G42A G63A, the “polymerase ribozyme fitness (log ratio)” value is -2.56. On to A46U A74C C88G, for which the “polymerase ribozyme fitness (log ratio)” value was -4.4. To C73A C104A A108G U112A A118G G122U belongs -5.56; to A5U C31U U112A, -3.97; to A26U C72A U78C A91C A118G A121U U126C, -5.75. Then A16U A18G, with -3.02. To C12G G42A belongs -1.36.

In the case of A5G C12G G42U, the “polymerase ribozyme fitness (log ratio)” value was -0.303. To G47A C70G belongs -4.77; to A111G G120A, -0.416. Take G60C C73U U130G: the “polymerase ribozyme fitness (log ratio)” value was -0.603. For A5U A84G U96C G113U, the “polymerase ribozyme fitness (log ratio)” value was -4.28. Turning to C4G C73U, the “polymerase ribozyme fitness (log ratio)” value was -1.69. Then C3U C94U U106C, with -0.635; and U32C A100C, with -1.02.

As for C3A, the “polymerase ribozyme fitness (log ratio)” value was -1.22. As to A43G C64U, the “polymerase ribozyme fitness (log ratio)” value was -1.23.

For the variant C8G G39U C123U, the “polymerase ribozyme fitness (log ratio)” value was determined as 1.42. Then C15A C70U C114U, with -5.04; and U112G G127A, with -1.12. Then C56U C73A, with -0.837. With G58C A83C, the “polymerase ribozyme fitness (log ratio)” value came to 0.207.

On to C20G C53U, for which the “polymerase ribozyme fitness (log ratio)” value was -3.06. Then G23U C72G, with -6.36. On to C62U C89A C124A, for which the “polymerase ribozyme fitness (log ratio)” value amounted to 0.0858. Take C76U C89G C98U: the “polymerase ribozyme fitness (log ratio)” value was -4.45.

As to G48A G52A, the “polymerase ribozyme fitness (log ratio)” value was -0.371. Turning to A2C C13G G36A G63A, the “polymerase ribozyme fitness (log ratio)” value was -5.73. Then C15U A18U C20U C28G G61U U87G C115U, with -5. Then G36C U130G, with -1.39. G44C C89U: the “polymerase ribozyme fitness (log ratio)” value is -1.15. For the variant C34A C79U, the “polymerase ribozyme fitness (log ratio)” value was -2.71.

On to C49G G120U, for which the “polymerase ribozyme fitness (log ratio)” value amounted to 0.305. Consider C8A U112A C123A, for which the “polymerase ribozyme fitness (log ratio)” value is 1.22. To A111C C114G belongs -3.93; to G44C C85U U92A C124U U133C, -1.63.

Consider A18U A74C A90U A121C U129A, for which the “polymerase ribozyme fitness (log ratio)” value was -1.29.

For C40G A50U, the “polymerase ribozyme fitness (log ratio)” value was -0.606. To A18U C40U belongs -3.83. Then G71U C124G U126C, with 2.04; and A41G C53U G77A A108G, with -2.63; and C12A G51U G71U U133C, with -4.34.

For C101U C124A, the “polymerase ribozyme fitness (log ratio)” value worked out at 1.17. Turning to U7A U9C C15A A41U C56U U92G, the “polymerase ribozyme fitness (log ratio)” value is -1.45. Then U78G C97A, with -2.84; and A41U C49U C88A A121U, with -0.675; and A26G A84G G120A, with -2.95. Consider C12A A26U A41C C82A A95G C101A G120A G127A, for which the “polymerase ribozyme fitness (log ratio)” value was -5.86. C11A G61A C104A G110A: the “polymerase ribozyme fitness (log ratio)” value is -5.34. On to G52A U130C, for which the “polymerase ribozyme fitness (log ratio)” value is -0.159. Regarding C13U U30G U55G A111U, the “polymerase ribozyme fitness (log ratio)” value was -4.31.

Consider A46U U55C A95C, for which the “polymerase ribozyme fitness (log ratio)” value is -2.5. To G36C C70G G110C U129G belongs -5.33. Turning to C3A G36C G63A U130C, the “polymerase ribozyme fitness (log ratio)” value is -2.1. To C8U C13U A103C C115A A119G belongs -2.38. With G47U C104A U133G, the “polymerase ribozyme fitness (log ratio)” value is -4.19. As for A41C G93A U112A, the “polymerase ribozyme fitness (log ratio)” value is -1.27.

Turning to A16U A18C C86A, the “polymerase ribozyme fitness (log ratio)” value is -4.71. With G77C U87A G93C A105U C115A, the “polymerase ribozyme fitness (log ratio)” value is -5.31.

In the case of G10U G47A, the “polymerase ribozyme fitness (log ratio)” value is -0.776. As to G36U C79U, the “polymerase ribozyme fitness (log ratio)” value was -1.62. Then C70U C72G G77C, with -2.87. To C12G A46U C82G belongs -1.75; to C12U G35A G42U U112C, -5.14; to C101G, -1.66. Then G36A C49A C56G C80A A90G, with -4.92; and A16C C72G C82G G120C, with -1.82; and C20G G39A G57A U109A, with -3.93. A75G U112A U131A: the “polymerase ribozyme fitness (log ratio)” value was 1.22. Then U59A C70G, with -5.27; and C8U C70G U78C G113A A121G, with -3.57; and A37G C73A U96A, with -3.88. G45A C89U U133A: the “polymerase ribozyme fitness (log ratio)” value was -1.52. On to A6U C34G U87A G120A, for which the “polymerase ribozyme fitness (log ratio)” value is -3.94. To A50U G61U G110A G127A belongs -3.84; to G36U G61C U126C, -4.78; to G10A C97A, -4.44.

On to A50U C56G C70U U78C, for which the “polymerase ribozyme fitness (log ratio)” value is -5.64. As for C72U G122U, the “polymerase ribozyme fitness (log ratio)” value was 0.145. Then C8G C62U C86G G117A A119U, with -0.52. To C28A C70G C79G U130C belongs -6.51. To A105C U109A U133C belongs -5.16. Turning to A5U U9C G45A, the “polymerase ribozyme fitness (log ratio)” value is -0.0819.
